According to the supplement of paper PMC12042874:
± gives the uncertainty stated by the source.

Experiment: amyloid nucleation score (Sup35N fusion, yeast selection) (log enrichment); library NNK2; higher = more nucleation; inactive = no reads after selection
Summary of the method: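 Plasmid inserts were Illumina-sequenced at input and output from psi-negative yeast expressing Sup35N fused to peptides of 20 random codons. The yeast were induced with 100 μM copper sulfate for 24 hours and grown 7 days at 30°C on medium lacking adenine and uracil, and sequences with under 100 input reads were excluded. Nucleation score is the DiMSum log enrichment of output over input reads, centred on the mode score of non-aggregating sequences.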

Row | Substance | amyloid nucleation score
1 | QHAFRVHFTVRRVSSFFVR | 5.96 ± 0.086
2 | TISWFLETYVRSLFPRVGRG | -0.035 ± 0.33
3 | MNYRCKYAQDTHLSEQSSQE | -0.799 ± 0.33
4 | SGSGSTAILGKTSGHVCLAI | 0.713 ± 0.58
5 | IVTAVITM | inactive
6 | VFMGNSLHFRRSTVAHWRSN | 1.39 ± 0.41
7 | TNSTPPVKLYWIMKLLDRFR | inactive
8 | DFIMFLAGPNSVNYNVVLYF | 7.437 ± 0.055
9 | LNKNLLEKCLYRDLLLSVFW | -2.32 ± 1.1
10 | LFNVMLCMP | 4.17 ± 0.048
11 | YFCCVSTIARSMFLSRGSGR | 8.771 ± 0.058
12 | NEDTAGTRRLHPRYGVADWS | 0.88 ± 0.18
13 | MGDTRNGYFSRMLFYTDCPW | 0.037 ± 0.43
14 | FRYLYVLYGFYMVVTWYLRV | -0.088 ± 0.63
15 | TRVLYPACVCHGRSISFGVE | 0.134 ± 0.44
16 | ISGSRWRLGAIVGTVVEAFG | -0.049 ± 0.76
17 | GGFDYCFIMYHRNELDSGLG | -0.646 ± 0.23
18 | RYNHRFKVVLSHNIDLWQGS | 0.689 ± 0.47
19 | FVHKSCSAALTTLGTVAD | 4.333 ± 0.042
20 | QLFTWILVAPKLPCWF | 6.36 ± 0.086
21 | FFTSSHNFCYLMGYNMIWFK | inactive
22 | LTVLLSMK | -0.911 ± 0.5

Row | Substance | amyloid nucleation score
23 | FLTGDFSAHMNLLIWIFEMS | 5.669 ± 0.05
24 | SSSSPHLDNLLGSGRLEIPS | 0.56 ± 0.56
25 | AIQQTQLLCIENMVGLFVVR | 0.58 ± 0.64
26 | RTVRTAAMLTCGW | 0.855 ± 0.48
27 | LIFGAKLESGYASVEFSDSD | -0.347 ± 1
28 | FMTFK | 3.14 ± 0.13
29 | RIVLLLNVYNTREM | 5.04 ± 0.1
30 | YSSFIDNHFAVRR | -0.448 ± 0.49
31 | TSTIYGLTPRFGNMAHSAVV | 0.227 ± 0.65
32 | NVRMSGLF | 2.67 ± 0.14
33 | HSTIAVSCY | 0.219 ± 1
34 | FSMMFIL | 3.57 ± 0.075
35 | RNIVDISSNVRCWLGRPAIS | 3.27 ± 0.066
36 | LNIIMGSSDFCPESFYKFW | 0.266 ± 1
37 | LHLEMTEW | inactive
38 | SGMWSNRDEALSCWRG | 0.29 ± 0.54
39 | GQDITDTFTLNCSRGFTCIR | 0.091 ± 0.34
40 | AAPVMH | -0.354 ± 0.76
41 | APGWKLMNTSPNRMSTLNLQ | -0.633 ± 1.1
42 | LQVLARVDRLSHPGR | 0.636 ± 0.81
43 | TLLSTEMHDYKLLARQRCHP | 1.24 ± 0.38
44 | SSTFCS | 0.405 ± 0.64

Row | Substance | amyloid nucleation score
45 | VFSEWWFTANAACSAQCYEW | 0.789 ± 0.33
46 | RNCTRFPWSIM | 0.131 ± 1
47 | NMPMQSYTIMVWSLQGMAAG | 0.705 ± 0.56
48 | FLGCYGLNCVSWKGMMSTPL | 4.31 ± 0.072
49 | LHGVSAIMLGTIGARVN | -0.125 ± 0.49
50 | CCQFLVTWDVAYTSMFGSTL | 3.56 ± 0.056
51 | SSDYGIQPCFTTTSLLLLFN | -0.914 ± 0.48
52 | LTRYLLWLLVESGFLGRSGV | -0.21 ± 0.79
53 | KDLPFGTYGNGGAGSRTMRH | 0.19 ± 0.27
54 | LKITRRSALV | 0.186 ± 0.76
55 | MCSQGCTHFRVAWPLRACRW | 3.85 ± 0.072
56 | NRVLVLAVGHEKFIAKMRLT | 1.51 ± 0.46
57 | FGGIASMMFVEMRRGSINEM | 3.51 ± 0.045
58 | PSVACGERCKPMCKVTLSPC | 1.42 ± 0.33
59 | QESWHNYESS | -0.805 ± 0.64
60 | FAFICTR | inactive
61 | DYWFRGAESCTCGLE | 0.012 ± 0.63
62 | VGIRRYVRFKVLHNRVNVHE | inactive
63 | VQSTRIISCVLCLGDWLEDY | 10.19 ± 0.022
64 | TVTSLRSLPIMSMPCRETTD | 1.1 ± 0.25
65 | DRWGFDFCQLLV | 1.95 ± 0.12
66 | INCSAFNHCIYSSPT | 2.82 ± 0.082

Row | Substance | amyloid nucleation score
67 | PAMSVHGNSAESTYVIMHYF | -0.494 ± 0.54
68 | VVDGLRATAH | 0.366 ± 0.38
69 | MFLILMCNCSYVGILRPNST | 6.672 ± 0.03
70 | VFTKLTLSSI | 0.227 ± 1.1
71 | PSSSVCNINCYSKRSDRSVV | -0.09 ± 0.63
72 | PIWFQFGVANTSGLNGVLTS | 0.612 ± 0.34
73 | VAFKRLGNMSSGTFSWAMLN | 0.894 ± 0.74
74 | LVYLELTELQLCDAFAKVKN | 0.133 ± 0.25
75 | CINANRGRFLKEIMDLVLRE | -0.586 ± 0.23
76 | DYYNRVISASVYSLGGCC | 2.82 ± 0.075
77 | SSSWLCYTSFWYVNHSRRSL | 8.051 ± 0.043
78 | TNCSYMMYAAKVSQKYPPFP | -0.567 ± 1.1
79 | WVSSQAEWGVLCGICRSLES | inactive
80 | SLRWDYLHLVWRHAEGGYGK | 6.678 ± 0.038
81 | FSVTMF | -0.197 ± 0.33
82 | NPHGMLSTRSGSVFMPTIDT | -0.742 ± 1
83 | TAGSTSSEADISLF | 4.02 ± 0.13
84 | YSMSLASSRCR | inactive
85 | FYCLCTTDGICLEDLL | -0.097 ± 1.1
